Assay results reported in doi:10.1101/2020.08.14.246132 (bioRxiv, 2020).

Biological target: DPP9, short isoform (His-TEV-DPP9), co-expressed with NLRP1ΔΔ for cryo-EM (human, UniProt Q86TI2-1 1-863)
Assay: cryo-EM structure

Sequence of DPP9, short isoform (His-TEV-DPP9), co-expressed with NLRP1ΔΔ for cryo-EM (Q86TI2 whole entry, stated change not applied, canonical isoform): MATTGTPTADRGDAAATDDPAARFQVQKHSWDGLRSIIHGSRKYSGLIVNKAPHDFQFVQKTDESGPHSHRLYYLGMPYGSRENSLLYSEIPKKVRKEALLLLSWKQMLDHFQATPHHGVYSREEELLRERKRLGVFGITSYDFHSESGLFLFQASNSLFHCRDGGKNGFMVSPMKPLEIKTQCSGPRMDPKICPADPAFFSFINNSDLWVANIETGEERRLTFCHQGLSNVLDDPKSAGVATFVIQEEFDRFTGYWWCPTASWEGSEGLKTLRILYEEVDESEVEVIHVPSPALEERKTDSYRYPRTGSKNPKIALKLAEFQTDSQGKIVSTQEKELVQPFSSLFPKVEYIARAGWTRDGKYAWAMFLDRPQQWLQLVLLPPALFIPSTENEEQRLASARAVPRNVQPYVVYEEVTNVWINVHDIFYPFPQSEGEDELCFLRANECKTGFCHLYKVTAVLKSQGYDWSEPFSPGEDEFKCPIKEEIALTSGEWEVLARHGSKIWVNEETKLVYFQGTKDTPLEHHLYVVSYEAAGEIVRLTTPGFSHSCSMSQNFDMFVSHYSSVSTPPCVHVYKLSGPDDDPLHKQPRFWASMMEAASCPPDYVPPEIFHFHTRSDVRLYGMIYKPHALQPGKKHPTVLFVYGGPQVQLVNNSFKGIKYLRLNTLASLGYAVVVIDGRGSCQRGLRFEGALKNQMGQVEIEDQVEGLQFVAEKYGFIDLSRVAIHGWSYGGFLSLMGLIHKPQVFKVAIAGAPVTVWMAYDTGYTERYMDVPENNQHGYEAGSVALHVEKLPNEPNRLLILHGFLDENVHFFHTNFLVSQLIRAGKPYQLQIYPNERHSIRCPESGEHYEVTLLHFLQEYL

B1: NLRP1-CT freed from NLRP1ΔΔ (UPA subdomain only), molecule B of the NLRP1^A-NLRP1^B-DPP9 ternary complex (domain or fragment, human, UniProt Q9C000-1 1213-1364, looked up)
chain: SPLGVLLKMIHNALRFIPVTSVVLLYHRVHPEEVTFHLYLIPSDCSIRKAIDDLEMKFQFVRIHKPPPLTPLYMGCRYTVSGSGSGMLEILPKELELCYRSPGEDQLFSEFYVGHLGSGIRLQVKDKKDETLVWEALVKPGDLMPATTLIPP
binding result: binds
